Results on one substance are retold here after PMC2820527.

This experiment has as its target SmTK4-SH2SH2 (tandem SH2-domain of SmTK4 as a fusion protein with the Gal4-BD) (Schistosoma mansoni) (UniProt Q8WPV5). Nature of the experiment: two-hybrid; beta-Gal liquid assay (ONPG) in AH109, relative binding strength; bait plasmid co-expresses the SmTK3 TK-domain (additional phosphorylation).

The substance “SmTK6 prey clone (novel schistosome Src kinase SmTK6, partial, Gal4-AD fusion) (from UniProt C5J9R9 1-565) (domain or fragment)” had a fold increase of the interaction (β-Gal liquid assay) with the SmTK3 TK-domain against without it of 5 fold.
